Target: His-MxiC(C184A/C233S/A247C/S290C), labelled with MTSL (Shigella flexneri) (UniProt Q04640)
Test: continuous wave EPR; X-band, room temperature; MTSL-labelled His-MxiC(Cys) at ~75 μM with a 10-fold (~750 μM) or n-fold excess of the unlabelled partner, in 20 mM Tris-HCl pH 7.5, 100 mM NaCl; binding read from the change of the spin labels' spectrum; KD estimated from the molar ratio that gives half of the maximal change

Question: “His6-IpaD(15-332) C322S (from UniProt P18013 15-332) (domain or fragment)” was tested. Which Kd did it give?
Answer: 730 µM

— publication PMC5290946
